Test [1] concerns the target T1, HSA (UniProt P02768 25-609). The test is described as follows: ELISA, HSA dried on Terasaki plates, Experiment A. How it is done:
(§1) The plates were blocked for 1 hour at room temperature using PBS/3% BSA and washed three times with PBS. Serial dilutions of test antibodies in PBS/3% BSA were applied to the wells and the plates incubated for 1 hour before washing as above. Suitable anti-murine antibody or anti-human antibody alkaline phosphatase-conjugated antibodies were diluted in PBS/3% BSA and incubated in the wells for 1.5 h. After washing, colour was developed using diethanolamine and p-nitrophenyl phosphate at 37° C. for about 20 min and the absorbances measured at 405 mn.
On the technique in general: An ELISA detects its analyte on a solid surface through an enzyme-linked reagent.

Test [2] deals with T1, HSA. The test is described as follows: ELISA, HSA dried on Terasaki plates, Experiment B. As for the experimental part: as §1

From patent US6518415 (LUDWIG INSTITUTE FOR CANCER RESEARCH, dated 2003) come the findings set out here.

Numbering of substitutions follows the chain as printed.

T1 sequence (P02768 25-609): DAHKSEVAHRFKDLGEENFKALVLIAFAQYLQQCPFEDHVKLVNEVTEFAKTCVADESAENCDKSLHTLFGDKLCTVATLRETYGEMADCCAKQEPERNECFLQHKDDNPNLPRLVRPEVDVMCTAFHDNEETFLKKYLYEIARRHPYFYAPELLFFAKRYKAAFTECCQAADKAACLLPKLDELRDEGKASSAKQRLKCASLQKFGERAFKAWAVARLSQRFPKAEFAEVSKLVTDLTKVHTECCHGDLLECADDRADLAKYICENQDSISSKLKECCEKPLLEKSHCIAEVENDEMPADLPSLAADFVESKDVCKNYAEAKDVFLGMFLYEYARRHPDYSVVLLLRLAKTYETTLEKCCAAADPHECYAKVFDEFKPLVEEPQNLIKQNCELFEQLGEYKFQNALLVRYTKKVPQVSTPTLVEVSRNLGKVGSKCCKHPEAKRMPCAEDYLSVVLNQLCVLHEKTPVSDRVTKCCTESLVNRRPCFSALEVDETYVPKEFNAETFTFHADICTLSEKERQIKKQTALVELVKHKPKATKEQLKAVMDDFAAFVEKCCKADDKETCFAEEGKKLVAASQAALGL

B1: humanized 3S193 antibody HuVH/HuVK (antibody, V domains shown)
VH: EVQLVESGGGVVQPGRSLRLSCSSSGFTFSDYYMYWVRQAPGKGLEWVAYMSNVGAITDYPDTVKGRFTISRDNSKNTLFLQMDSLRPEDTGVYFCARGTRDGSWFAYWGQGTPVTVSS
VL: DIQMTQSPSSLSASVGDRVTITCRSSQRIVHSNGNTYLEWYQQTPGKAPKLLIYKVSNRFSGVPSRFSGSGSGTDYTFTISSLQPEDIATYYCFQGSHVPFTFGQGTKLQIT
notes: also called 3S193 HuVH/HuVK
Consider B1, for which, in test [1], the binding result is listed as “no binding (tested: 100 µg/ml (highest concentration tested))”.

B2: humanized 3S193 antibody HuVHA/HuVKF (antibody, V domains shown)
VH: B1 VH with S75A
VL: B1 VL with Y76F
Regarding B2, the binding result in test [2] is reported as “no binding (tested: 100 µg/ml (highest concentration tested))”.

B3: humanized 3S193 antibody HuVHAS/HuVKF (antibody, V domains shown)
VH: B1 VH with S75A, N77S
VL: B1 VL with Y76F
On to B3, for which, in test [2], the binding result was “no binding (tested: 100 µg/ml (highest concentration tested))”.

B4: humanized 3S193 antibody HuVHASY/HuVKF (antibody, V domains shown)
VH: B1 VH with S75A, N77S, F80Y
VL: B1 VL with Y76F
notes: also called 3S193HuVHASY
In the case of B4, in test [2], the binding result is “no binding (tested: 100 µg/ml (highest concentration tested))”.

B5: murine monoclonal antibody 3S193 (antibody, V domains shown)
VH: EVKLVESGGGLVQPGGSLKLSCATSGFTFSDYYMYWVRQTPEKRLEWVAYMSNVGAITDYPDTVKGRFTISRDNAKSTLYLQMSRLRSEDTAMYYCARGTRDGSWFAYWGQGTLVTVSA
VL: DVLMTQTPLSLPVSLGDQASISCRSSQRIVHSNGNTYLEWYLQKPGQSPKLLIYKVSNRFSGVPDRFSGSGSGTDFTLKISRVEAEDLGVYYCFQGSHVPFTFGSGTKLEIK
notes: The N-terminal residues of the VK in the listing are dictated by the VK10BACK primer; also called murine 3S193
As for B5, the binding result in test [1] is “no binding (tested: 100 µg/ml (highest concentration tested))”.
